Measured values from patent US4793986A, “Macromolecular platinum antitumor compounds” (Johnson Matthey, Inc., priority 1987, dated 1988).

What was measured:
L1210 = assay: Lifespan summary, L1210; assay type: in vivo, mice; conditions: i.p.; for AWG D.5: day 5
[1] = cited from earlier work
L1210 Leukemia = assay: Effect on L1210 Leukemia; assay type: in vivo, mice; conditions: i.p.; for AWG D.5: day 5
Pt release = assay type: physicochemical; design: unit not given here
A549 = assay: In-vitro cytotoxicity testing, A549; assay type: cell-based; conditions: A549 (human lung)
Text: IN-VITRO CYTOTOXICITY TESTING^1
(§1) IC50 (ug/ml)/Active Dilution

B16-F10 = assay: In-vitro cytotoxicity testing, B16-F10; assay type: cell-based; conditions: B16-F10 (murine melanoma)
Text: (§2) IN-VITRO CY[…]^1
as §1
B16F10 -- Murine melanoma

HCT-116 = assay: In-vitro cytotoxicity testing, HCT-116; assay type: cell-based; conditions: HCT-116 (human colon)
Text: as §2, §1

SW1271 = assay: In-vitro cytotoxicity testing, SW1271; assay type: cell-based; conditions: SW1271 (human lung)
Text: as §2, §1

[2] = 4 mg/kg/dose, Q01DX1;1, vehicle BS
[3] = 6 mg/kg/dose, Q01DX1;1, vehicle BS
[4] = 8 mg/kg/dose, Q01DX1;1, vehicle BS
[5] = 10 mg/kg/dose, Q01DX1;1, vehicle BS
[6] = pH 5.80, 1 h, 0.1M phosphate buffer
[7] = pH 5.80, 24 h, 0.1M phosphate buffer
[8] = pH 5.80, 48 h, 0.1M phosphate buffer
[9] = pH 7.00, 1 h, 0.1M phosphate buffer
[10] = pH 7.00, 24 h, 0.1M phosphate buffer
[11] = pH 7.00, 48 h, 0.1M phosphate buffer
[12] = pH 8.00, 1 h, 0.1M phosphate buffer
[13] = pH 8.00, 24 h, 0.1M phosphate buffer
[14] = pH 8.00, 48 h, 0.1M phosphate buffer
[15] = 160 mg/kg/dose, Q01DX1;1, H2O + tween 80
[16] = 240 mg/kg/dose, Q01DX1;1, H2O + tween 80
[17] = 320 mg/kg/dose, Q01DX1;1, H2O + tween 80
[18] = 400 mg/kg/dose, Q01DX1;1, H2O + tween 80
[19] = 80 mg/kg/dose, Q01DX1;1, H2O + tween 80
[20] = 120 mg/kg/dose, Q01DX1;1, H2O + tween 80

N.N.[Cl][Pt][Cl] [Cisplatin, cis-diamino dichloroplatinum(II)]
% T/C (L1210; [2]): 129% | Med. S.T. (L1210; [2]): 9.0 | AWG D.5 (L1210; [2]): -0.7 Gm | % T/C (L1210; [3]): 157% | Med. S.T. (L1210; [3]): 11.0 | AWG D.5 (L1210; [3]): -2.1 Gm | % T/C (L1210; [4]): 171% | Med. S.T. (L1210; [4]): 12.0 | AWG D.5 (L1210; [4]): -2.8 Gm | % T/C (L1210; [5]): 171% | Med. S.T. (L1210; [5]): 12.0 | AWG D.5 (L1210; [5]): -3.3 Gm | nausea and vomiting ([1]; cisplatin as a drug): nausea and vomiting which cause extreme discomfort for the patient | % T/C (L1210 Leukemia; [2]): 129% | Med. S.T. (L1210 Leukemia; [2]): 9.0 | AWG D.5 (L1210 Leukemia; [2]): 0.2 Gm | % T/C (L1210 Leukemia; [3]): 157% | Med. S.T. (L1210 Leukemia; [3]): 11.0 | AWG D.5 (L1210 Leukemia; [3]): -0.9 Gm | % T/C (L1210 Leukemia; [4]): 136% | Med. S.T. (L1210 Leukemia; [4]): 9.5 | AWG D.5 (L1210 Leukemia; [4]): -1.4 Gm | % T/C (L1210 Leukemia; [5]): 171% | Med. S.T. (L1210 Leukemia; [5]): 12.0 | AWG D.5 (L1210 Leukemia; [5]): -2.4 Gm

N.N.O=C([O-])C1(C(=O)[O-])CCC1.[Pt+2] [carboplatin]
nephrotoxicity ([1]; carboplatin, relative to cisplatin): decreased nephrotoxicity

Pt-Isoserinato Dextran [Example 5]
Pt release (Pt release; [6]): 9.5 | Pt release (Pt release; [7]): 72.5 | Pt release (Pt release; [8]): 88.5 | Pt release (Pt release; pH 5.80, 120 h, 0.1M phosphate buffer): 98.7 | Pt release (Pt release; [9]): 8.8 | Pt release (Pt release; [10]): 61.1 | Pt release (Pt release; [11]): 76.3 | Pt release (Pt release; pH 7.00, 120 h, 0.1M phosphate buffer): 89.3 | Pt release (Pt release; [12]): 8.8 | Pt release (Pt release; [13]): 55.7 | Pt release (Pt release; [14]): 66.9 | Pt release (Pt release; pH 8.00, 120 h, 0.1M phosphate buffer): 76.2

Pt-Malonato Dextran (Method A) [Example 1]
IC50 (A549): > 500 µg/mL | IC50 (B16-F10): 426 µg/mL | Pt release (Pt release; pH 5.60, 2 h): 0.6 | Pt release (Pt release; pH 5.60, 24 h): 4.3 | Pt release (Pt release; pH 5.60, 48 h): 6.8 | Pt release (Pt release; pH 5.60, 72 h): 8.2 | Pt release (Pt release; pH 6.80, 2 h): 0.5 | Pt release (Pt release; pH 6.80, 24 h): 6.6 | Pt release (Pt release; pH 6.80, 48 h): 10.2 | Pt release (Pt release; pH 6.80, 72 h): 13.3 | Pt release (Pt release; pH 8.30, 2 h): 1.3 | Pt release (Pt release; pH 8.30, 24 h): 7.2 | Pt release (Pt release; pH 8.30, 48 h): 10.3 | Pt release (Pt release; pH 8.30, 72 h): 13.8 | IC50 (HCT-116): > 500 µg/mL | IC50 (SW1271): 408 µg/mL

Pt-Malonato Dextran (Method B) [Example 2]
IC50 (B16-F10): 332 µg/mL | % T/C (L1210; [15]): 107% | Med. S.T. (L1210; [15]): 7.5 | % T/C (L1210; [16]): 121% | Med. S.T. (L1210; [16]): 8.5 | % T/C (L1210; [17]): 114% | Med. S.T. (L1210; [17]): 8.0 | % T/C (L1210; [18]): 143% | Med. S.T. (L1210; [18]): 10.0 | IC50 (HCT-116): 430 µg/mL | IC50 (SW1271): > 500 µg/mL | % T/C (L1210 Leukemia; [19]): 100% | Med. S.T. (L1210 Leukemia; [19]): 7.0 | % T/C (L1210 Leukemia; [20]): 100% | Med. S.T. (L1210 Leukemia; [20]): 7.0 | % T/C (L1210 Leukemia; [15]): 107% | Med. S.T. (L1210 Leukemia; [15]): 7.5

Pt-Malonato Inulin [Example 7]
Pt release (Pt release; pH 5.42, 1 h): 4.7 | Pt release (Pt release; pH 5.42, 24 h): 18.1 | Pt release (Pt release; pH 5.42, 48 h): 20.5 | Pt release (Pt release; pH 5.42, 72 h): 26.2 | Pt release (Pt release; pH 5.42, 144 h): 27.5 | Pt release (Pt release; pH 6.76, 1 h): 3.1 | Pt release (Pt release; pH 6.76, 24 h): 15.2 | Pt release (Pt release; pH 6.76, 48 h): 18.3 | Pt release (Pt release; pH 6.76, 72 h): 20.0 | Pt release (Pt release; pH 6.76, 144 h): 22.7 | Pt release (Pt release; pH 7.86, 1 h): 4.9 | Pt release (Pt release; pH 7.86, 24 h): 17.8 | Pt release (Pt release; pH 7.86, 48 h): 21.0 | Pt release (Pt release; pH 7.86, 72 h): 21.9 | Pt release (Pt release; pH 7.86, 144 h): 28.8

Pt-Malonato Xylan [Example 9]
Pt release (Pt release; [6]): 3.1 | Pt release (Pt release; [7]): 22.6 | Pt release (Pt release; [8]): 29.8 | Pt release (Pt release; pH 5.80, 72 h, 0.1M phosphate buffer): 32.8 | Pt release (Pt release; pH 5.80, 144 h, 0.1M phosphate buffer): 41.9 | Pt release (Pt release; [9]): 2.1 | Pt release (Pt release; [10]): 17.9 | Pt release (Pt release; [11]): 23.7 | Pt release (Pt release; pH 7.00, 72 h, 0.1M phosphate buffer): 27.5 | Pt release (Pt release; pH 7.00, 144 h, 0.1M phosphate buffer): 40.9 | Pt release (Pt release; [12]): 1.7 | Pt release (Pt release; [13]): 18.9 | Pt release (Pt release; [14]): 25.4 | Pt release (Pt release; pH 8.00, 72 h, 0.1M phosphate buffer): 28.2 | Pt release (Pt release; pH 8.00, 144 h, 0.1M phosphate buffer): 35.8

Pt-malonato dextran [Pt-malonato dextran of Example 3]
Pt release (Pt release; pH 5.50, 1 h): 0.6 | Pt release (Pt release; pH 5.50, 16 h): 5.2 | Pt release (Pt release; pH 5.50, 40 h): 6.4 | Pt release (Pt release; pH 5.50, 64 h): 7.6 | Pt release (Pt release; pH 7.10, 1 h): 0.6 | Pt release (Pt release; pH 7.10, 16 h): 4.2 | Pt release (Pt release; pH 7.10, 40 h): 4.9 | Pt release (Pt release; pH 7.10, 64 h): 6.1 | Pt release (Pt release; pH 8.20, 1 h): 0.7 | Pt release (Pt release; pH 8.20, 16 h): 4.2 | Pt release (Pt release; pH 8.20, 40 h): 5.1 | Pt release (Pt release; pH 8.20, 64 h): 6.4
